Data: the domain aggregation screens of Martell et al. (2025)

Assay: soluble fraction after stress (log2 fold change); higher = more stays soluble; pooled small domains, quantitative proteomics
Settings: stress: 75 degC
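Note: 20 min heating vs room temperature control held 20 min.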

Sequence | soluble fraction (log2)
HMDLRAPKPIKEMGEEYIKLYQYLRKGESENIVMSKMNISLDDYDYMRSEIEDKLSLYNMLDLLRKP | -0.978
HMDLRVKRTNKMIMEAFIHLVEQKGYDNITVQEIADEAMINRATFYAHFKDKQDLYDHIFKQAI | -0.902
HMDLSPEQAELAAIRGELGIKIDDYALALNIPRDRLTSYLYGRANVPAEVLISARELRYASSA | -0.0206
HMDMQNIQKGLSAIEPGRTFSREEYYAAIQNGSEMLLKEDALAYSLRKSLSDGDIVRVSWNQYAIP | -0.107
HMDMTPEEFLAWARHKPFGDPFPKTQTVTFLVPLLGVSRTNIFTWISGKVNPSKTSLLLMEALKRENR | -0.493
HMDNEIEQIVEDLNLTLSSLKYTKNQIESILPLIIKEIDDFKKKEKNISFENLLKLAMNHLDND | -0.38
HMDNEIRIPLPSLQRDGFSIGTREDDGSQLVRIMSAGSFGGMIRSFRLPEGMRIEGAKWEGEIVSIRL | -0.00847
HMDNEVTIAVQVNGKLRDKLIVALDTPNEKIEQLALALPKVIQNTSGLTVRKVIVIPNRLVNIVA | -1.92
HMDNIKRGEMFYISRGGASYSGSEQHSDRPAVVVSNDKNNENSNVVEVVYMTTQPKTDLPTHVTVR | 0.0515
HMDNLKELDEILETYGKKKGYLITILQKAQDAYGYISIDIMNRISEFTGIKVAKIYGVATFYAQFRL | 0.0785
HMDNPLSQQEKRILQLISLGKTNQEIADILYLSNGTVRNYISSILNKLSANNRVEAARIAEEHGW | -0.755
HMDNPNVMAQVKSLLASKGLSEQEVKERLKAKGLNIDAMSDAEIAQNRSVIEQTIAELEAEKKKAG | 0.205
HMDNPYEVFIPNSYIGQRLDQTLASLFPQFSRSRLQNWLASGNLLVNGKIVKPKTKILGGEQINILDPYN | -0.608
HMDNTFEEVKEKLLDLLKERPLTPAEVSKRMEEDKNILAQVIQYLLEEEIIKTEDGMLSKVIG | -0.038
HMDNWYIAFNSFLSQNKLTAKNVSELTGLSKPTIDSYKQGKRKPTDENMQIIKDKLGFNISEILYN | -0.0615
HMDPDDEILINIMTKLLTEKQIIIKNKEIFNFLLKRINRTYEEVYNLINKMDKLSLEKKKQLTIPSIKEL | -1.71
HMDPEEETLKNMQRMLQDSGPLKKTEFSLLAKSLGIAEKKARKLIDRGRGRFWTVESGEQKNTQLVTPIQ | -0.108
HMDPERVVGQTGIVHLRIPARQHNTGKVMIEVQGSLREFDAVSEAEEIPTGTPILIVGRTEEGVFIAQPF | -0.286
HMDPGPVLISAQVLDDLEAIRRDGSSNMLDWPAVARLAEVMGMDRTAAWVRTHHREYSAGIFRGFASD | -1.93
HMDPHEEELLRQLIRGDIAGYEVLFHKYYPTFFAFIKGMTKETVVAEDITQNIFMKVWLNRERLDAA | -0.145
HMDPIATLTPREREVLSLMAEGRSNGAIAAALVVGDGAVEKHVSNIFQKLELTPAEGDHRRVLAVLRWLE | -0.909
HMDPLADLFSRIRNAQMRNKKVVTSPASKLRAGILEVLAKEGYIRGYAMTQHASGKNELDIELN | -1.05
HMDPNAITSAQVTKLQVLANEKGFAERQARLTMWAEVIGRNVGTANELTKAEAHKLIEHMDALPV | -0.691
HMDPNFKYIIRIANSDVSGEQKLAYALTSIRGIGERTSNAIIQKLGLDSTQLAGKLTDKNVEDIESA | 0.092
HMDPPQEVWDLTRSYLDSMNRPVHGHKSPQETYLRQVKSHRLPATALWDYFMAQRFHAVHATSESAA | -0.127
HMDPPYKDKNLHELLLKINNLNILKKDSVIILHRHKKQKEIFPSNFKIIEQKQYGISKIIFLTVL | -0.00334
HMDPRTSSLTPQERKVLELVGGGLTNRQIAAEMFLAEKTVKNYVSSLLAKLGFERRTQAAVFIASPAF | -0.54
HMDPSKLVEVQEPVSMKALSEGLGIKVTELIATFAFKLKIGGKNINSMLSNDEVELVALDLERNIKVV | 0.258

Sequence | soluble fraction (log2)
HMDPTEPLFVGVVTAEPYLNIREYPTTQSKDLGDLFPGMHVNVYEIVPNWYRIDDGWVASAWVKRDWGGG | -0.478
HMDPTIRRGELIDAASRLFLSKGYAATSVRDILDEVGNRTASPSVFYYYFKSKEEIYQAVLRRHSE | -1.51
HMDPTVSGQTGSVVREIRPGVPGEVELSVPLYGIRRWQAMADGILAEGTRVTVIQAEGVRLSVRPV | -1.24
HMDPTVTFIVQVNGRVRDKITLSSDISENEAKNVALESPKITPHISGKSLSRVIFVPGKLINLVV | -1.06
HMDPVATLTPREREVLELMAEGRTNAGIAEAMVVTEGAVEKHIQRIFAKLGLHADGGVHRRVAAVLALLG | -1.38
HMDQDIILHKVQPGDTLSKILLHYHSHQDRNKLQGLIAESMTANPFIKNPDLIYPGQLIQVPVPA | 0.0879
HMDQFMLQSAWLRAVQHVMKHTDDVGTQFAEEARRMHYGEADERPIRGQATSDEARALHDEGIEVMALPI | -0.36
HMDQILIHLKEGIDVTDVQPMLKALDLNVRMFNRDKNIIVISVLNRELDAIPQTIAALRPWEELFDSA | 0.171
HMDQNVSVPKLAGLQVEEANAILKSKGLHIEIIDSIYQKDAVPGAIIEQVPEENSKVKKGRAIYVSVYAK | -0.65
HMDQVYYDLKSLIELLPADQMEVLKMRYFEELSFKKIAQKIDVSINTALGRMRYALINLRALSKKHHID | -0.272
HMDRDMGSMTDFENVRDAYLTGKVWNVGDLIEANGITGIIIRKGTNYVSYNDGDGKVHKAWLHDITL | -0.802
HMDREILWTNYVAARKQEFIASSIDTIGAEYLDNRRFWDTQFEREWTIIAERLASGFGLTDDILSIVGSDF | -4.12
HMDRETEEYELIRAKLEWLYQKQTGTIRNQTAKILHHLEIAKEEGNYYLYLKIKEEAKQWLVQASMYLD | -0.638
HMDRGDVTREALIKAAIEIFGRDGFHAASTRAIAERAGANQALIGYHFRGKLGLYHATFEYIIGKI | -0.351
HMDRMINYSPIVAKVPQDDYTTKVYNIPIYSELTVVDKISEPEPLIAPIYRFKYITPEDEEIEFDIPV | -0.00941
HMDRMMQPETWGRVYQWITDDPQVPDREEVLTLIKYHYGDFGKLMKLLHRLNEGKAWTYLSEHIFPRM | -0.254
HMDRNEFVSTLRAALTGAVSPAIVEDNVRYYQNYISQEIASGKSEKEVLDGLGDPRLIARTIIDT | 0.0747
HMDRNIVYSDFIRSVNQGQVSEVLVQGDNIRGRYLNGKVFQTFAPKDPSLISTLRNKGVRISAEPA | 0.00952
HMDRRSTTLQDIYTRIDAEEISEALELIPKLGEIEFEQNRAEIAEAAGVRPAVLDKLRKQAAKQENNKK | -0.00584
HMDRSAQVLFLEHARSRLPQRIQWAEELAELLSIGIDSAYRRIRGETALTFNEAVSVSRKYDISLDYLFK | -3.79
HMDRSKREKEQQELMLKVQQIFDDNQQRFGAEKIRTVLAQNGVRVSVKRVSAIMQELNLRSIR | -2.36
HMDRVMPVPEALIGMRFDIAVSRMLGVSRSQAAAYIDRGQVSIAGRGSQRSAQKSEKLVQGDSIEVAIA | -1.39
HMDRWSLLTLTTLAGGTLRFTELKRAIGDISQRMLAQTLRTLEREGYVSRKVYATIPPKVEYRLTALGQSL | -3.21
HMDRYAVRAEELAAALAQYHRHVGVYPENLEDLIAPTGPRGYRGPYLSELPTNPSTSKPDWGYDPATGRVS | 0.432
HMDSAFVSDIRDAFDEAGVDSYRFFGTHSFKRGGVQLYRLLGVSDQEIKERGHWQTFSAYFAYVQA | 0.164
HMDSESGAIIRRAVAQLAPKFRSTIVLRLIEGYSTEETAQILQLPVGTVLSRLARAKVQLMNLLTPYKEL | -0.0893
HMDSIDIDAETKSLGPNAPQIIKGIKEWGQGLVAKGVWSDQDFEEFKVFAATANGINALNKVRKFY | -0.037
